The values below come from US10570379B2, “Polypeptides for carbon-carbon bond formation and uses thereof” (INVISTA North America S.à.r.l., priority 2015, dated 2020).

Positions count from the first letter of the chain named. Names and notes keep the numbering of the source.

Data set [1] in a line: Activity of YdiF mutant enzymes (evaluation of potential active sites). Type of data set: biochemical. Conditions: studied as in Example 2. The method, then:
YdiF mutants were prepared using the relevant primers to introduce the mutated bases via the Quick change lightning kit (Agilent, code product: 210518-5), and cloned into E. coli. In addition, all the proteins used in this experiment have the following extra amino acids added in the N-terminal extremity of the original protein sequence (SEQ ID NO:1): […]. Those additional amino acids correspond to: two amino acids (M and G), a 6×His-tag followed by a 3 amino acids linker (SSG), and a specific proteolytic cleavage site (thrombin site, underlined) (SEQ ID NO: 22). All the sequences were confirmed by DNA sequencing.
(§1) Acetyl-CoA was used at a final concentration of 1.5 mM and 30 mM of the substrate being studied (e.g. carboxylic acid salts, such as sodium acrylate) or 1.5 mM of propionyl-CoA in 50 mM Hepes buffer (pH 7.5). The reaction was started by addition of 0.5 mg/mL of YdiF pure protein or mutants to a final volume of 250 μL and incubated for 1 to 10 hours at 30° C.
(§2) All samples were prepared in triplicate and spun down at 15000 g for 20 min at 4° C. Detection of the thiol product (e.g. acryloyl-CoA) synthesized from CoA-transferase activity and the keto-thiol product (e.g. 3-oxopent-4-enoyl-CoA) due to putative thiolase activity of YdiF (or homologues) was carried out by Liquid Chromatography coupled to a qTof-Mass spectrometry (in positive mode), using a C18 column (Zorbax Eclipse C18, 2.1×50 mm, 1.8μ, Agilent, code product: 959757-902) and a gradient of 10 mM ammonium acetate and acetonitrile as mobile phase.
Mutations were introduced as described in Example 1 at the following positions previously found to be potentially involved in the active site of other β-ketothiolases: C258A, S60A, C112A, S38A, C390A. Activity of the mutant enzymes was studied as described in Example 2.
Mutations were introduced as described in Example 1 to replace the glutamate in position 324 of YdiF (see Selmer et al., 2002) with glycine (mutant E324G) or leucine (E324L). Activity of the mutant enzymes was studied as described in Example 2.

Data set [2] is described as follows: Solubility of the expressed protein (Table 3). Conditions: protein expressed in E. coli.
Description: From a fresh LB plate containing the desired clone transformant, one colony (or small scratch) was picked to inoculate 25 mL of LB supplemented with the relevant antibiotic and the pre-culture was incubated overnight at 37° C., 230 rpm. The following morning, the TB auto-induced medium (Merck/Code product: 71491-5) was prepared by mixing 60 g TB/L supplemented with 10 mL Glycerol/L of TB and microwaved during 3+2 minutes at full power. The TB was cooled down before use and splitting it in sterile flasks. Then, the pre-culture incubated overnight in LB was centrifuged and the supernatant discarded. The obtained pellet was resuspended with 5 mL of freshly prepared TB medium and used to inoculate 500 mL of TB dispensed in sterile flasks and supplemented with the appropriate antibiotic. The inoculated medium was incubated at 28° C. for at least 20 h, 230 rpm.
The culture was centrifuged at least at 3000 g/20 min/4° C. and the pellet used immediately or stored at −80′C.
The pellets (fresh or thawed) were resuspended in 10 to 20 mL of Buffer A (50 mM Hepes+150 mM NaCl+40 mM Imidazole+5% Glycerol−pH 7.5). The resuspended cells were then sonicated in ice for, 5 min at 37% Amplitude with 5″ ON and 15″ OFF sonication pulse. The sonicated cells were centrifuged for at least 20 min at 15500 g and 4° C. The supernatant containing the soluble fraction of proteins was recovered, filtered using 0.45 or 0.2 um filters, and used for His-trap protein purification.
The nature of data set [3]: Screen for dual transferase/ketothiolase activity with acetyl-CoA and sodium acrylate, LC-MS detection. Conditions: for ketothiol-product: 3-oxopent-4-enoyl-CoA via thiolase activity; for thiol-product: propenoyl-CoA via transferase activity. Type of data set: biochemical. How it is done: as §1
Two controls were made from similar mixture except that the enzymes were inactivated by heating-up at 95° C. for 20 min or they were replaced by Buffer C.
as §2
YdiF from Clostridium propionicum belongs to the enzymatic class EC2.8.3.8. Other members of this enzyme class with similar structural features to YdiF, as well as proteins with a CoA-transferase activity from close-by enzymatic classes, were screened for dual transferase/ketothiolase activity as described in Example 2. Acetyl-CoA and sodium acrylate were provided as substrates. LC-MS was used to detect the thiol-product (propenoyl-CoA) synthesized via the transferase activity and the ketothiol-product (3-oxopent-4-enoyl-CoA) synthesized via the thiolase activity, as described in Example 2.

B1: S60A: YdiF (SEQ ID NO: 1) mutant, alanine for serine at position 60, N-terminal His-tag (protein, listed as Clostridium propionicum)
chain: MRKVPIITADEAAKLIKDGDTVTTSGFVGNAIPEALDRAVEKRFLETGEPKNITYVYCGAQGNRDGRGAEHFAHEGLLKRYIAGHWATVPALGKMAMENKMEAYNVSQGALCHLFRDIASHKPGVFTKVGIGTFIDPRNGGGKVNDITKEDIVELVEIKGQEYLFYPAFPIHVALIRGTYADESGNITFEKEVAPLEGTSVCQAVKNSGGIVVVQVERVVKAGTLDPRHVKVPGIYVDYVVVADPEDHQQSLDCEYDPALSGEHRRPEVVGEPLPLSAKKVIGRRGAIELEKDVAVNLGVGAPEYVASVADEEGIVDFMTLTAESGAIGGVPAGGVRFGASYNADALIDQGYQFDYYDGGGLDLCYLGLAECDEKGNINVSRFGPRIAGCGGFINITQNTPKVFFCGTFTAGGLKVKIEDGKVIIVQEGKQKKFLKAVEQITFNGDVALANKQQVTYITERCVFLLKEDGLHLSEIAPGIDLQTQILDVMDFAPIIDRDANGQIKLMDAALFAEGLMGLKEMKS
modifications: N-terminal His-tag
Turning to B1, in data set [1], the thiolase activity result was “None of the mutations abolished” and the transferase activity entry is “None of the mutations abolished”.

B2: C112A: YdiF (SEQ ID NO: 1) mutant, alanine for cysteine at position 112, N-terminal His-tag (protein, listed as Clostridium propionicum)
chain: B1 chain with A60S, C112A
modifications: N-terminal His-tag
With B2, in data set [1], the thiolase activity entry was “None of the mutations abolished” and the transferase activity result was “None of the mutations abolished”.

B3: C390A: YdiF (SEQ ID NO: 1) mutant, alanine for cysteine at position 390, N-terminal His-tag (protein, listed as Clostridium propionicum)
chain: B1 chain with A60S, C390A
modifications: N-terminal His-tag
For the molecule B3, in data set [1], the thiolase activity entry is recorded as “None of the mutations abolished” and the transferase activity entry is recorded as “None of the mutations abolished”.

B4: Bdigene 0343: E-cinnamoyl-CoA: R-phenyilactate CoA transferase from Clostridium sporogenes, Uniprot Q93AM1 (protein, UniProt Q93AM1 1-412, looked up)
Cinnamoyl-CoA:phenyllactate …: MENNTNMFSGVKVIELANFIAAPAAGRFFADGGAEVIKIESPAGDPLRYTAPSEGRPLSQEENTTYDLENANKKAIVLNLKSEKGKKILHEMLAEADILLTNWRTKALVKQGLDYETLKEKYPKLVFAQITGYGEKGPDKDLPGFDYTAFFARGGVSGTLYEKGTVPPNVVPGLGDHQAGMFLAAGMAGALYKAKTTGQGDKVTVSLMHSAMYGLGIMIQAAQYKDHGLVYPINRNETPNPFIVSYKSKDDYFVQVCMPPYDVFYDRFMTALGREDLVGDERYNKIENLKDGRAKEVYSIIEQQMVTKTKDEWDNIFRDADIPFAIAQTWEDLLEDEQAWANDYLYKMKYPTGNERALVRLPVFFKEAGLPEYNQSPQIAENTVEVLKEMGYTEQEIEELEKDKDIMVRKEK
For the molecule B4, the Solubility entry in data set [2] is reported as “✓”.

B5: Bdigene 273: Acetate CoA-transferase YdiF from Firmicutes bacterium CAG, Uniprot R5ADR5, SEQ ID NO: 6 (protein)
chain: MARQVKVITAAEAAALIKNGDTVTTSGFVASAIPEALDRAVEERFLATGEPRDITYVYCGSQGNKDGRGAEHFAHEGLLKRYIAGHWATVPALQKMALENKMEAYNVSQGALCHLFRDIAAHRPGCFTKVGLGTFIDPRNGGGKVNDVTKEDIIELVNIKGQDYLFYPAFPINVALIRGTYADESGNISFEKEVSPLEGTSVCQAVKNSGGIVVVQVEKLVKAGTLDPRLVKVPGIYVDYVVVADPKDHQQTLDCDYDPALSGEMRNPDVAPEPLPLSAKKIIGRRGAVELEKDVAVNLGVGAPEYVASVANEEGIGDFMTLTVEGGAVGGVPAGGIRFGSAYNADALLDQGYQFDFYDGGGLDLCYLGLAECDPHGSINVSRFGPRIAGCGGFINITQCTPKVFFCGTFTAGGLKVKVEDGKVVIAQEGKNKKFVKSVEQVTFNGDIANKNGQHVMYITERCVFVLKEDGLHLTEIAPGIDLQTQILDQMEFEPIIDRNADGSITLMDAKLFADGLMGLKEMKEGK
For the molecule B5, the Solubility entry in data set [2] was “✓”. In data set [3], the ketothiol-product result is recorded as “✓” and the thiol-product result was “✓”.

B6: Bdigene 275: Acetyl-CoA acetyltransferase from Dyadobacter fermentans, Uniprot C6VTZ3, SEQ ID NO: 8 (protein)
chain: MNAYIVAGYRTAVGKAPRGGFRFTRPDDLGAAVIKHLLEKTPQLDPTRVDDVIVGNAVPEAEQGMQMGRYVALLSLPKNVSGITINRYCGSGVEAIAMASAKIHAGMAECIIAGGTESMSLVPTMGWKTALNYEIAHTNPDYYLSMGLTAEQVAQDFKISREAQDNFSFQSHQKALRAQKEGWFAEGIVPVTVKETYFDQASGKKKTKETVISQDEGPRADTTLEALNKLKPVFAAGGSVTAGNSSQTSDGAAFVLVMSERLVNELGLKPIARMMSYATAGVDPRVMGIGPVAAVPLALKQAGLQLKDIQQVELNEAFAAQSLAVIQELGIDPEIVNPNGGAIALGHALGSTGARLSVQLFNEMKRRDQKYGMVTACVGGGQGVAGIYERLN
modifications: Dyadobacter fermentans
Turning to B6, the Solubility entry in data set [2] is “✓”.

B7: E324L: YdiF mutant, leucine for the glutamate in position 324, SEQ ID NO: 4 (protein)
chain: MGHHHHHHSSGLVPRGSMRKVPIITADEAAKLIKDGDTVTTSGFVGNAIPEALDRAVEKRFLETGEPKNITYVYCGSQGNRDGRGAEHFAHEGLLKRYIAGHWATVPALGKMAMENKMEAYNVSQGALCHLFRDIASHKPGVFTKVGIGTFIDPRNGGGKVNDITKEDIVELVEIKGQEYLFYPAFPIHVALIRGTYADESGNITFEKEVAPLEGTSVCQAVKNSGGIVVVQVERVVKAGTLDPRHVKVPGIYVDYVVVADPEDHQQSLDCEYDPALSGEHRRPEVVGEPLPLSAKKVIGRRGAIELEKDVAVNLGVGAPEYVASVADEEGIVDFMTLTALSGAIGGVPAGGVRFGASYNADALIDQGYQFDYYDGGGLDLCYLGLAECDEKGNINVSRFGPRIAGCGGFINITQNTPKVFFCGTFTAGGLKVKIEDGKVIIVQEGKQKKFLKAVEQITFNGDVALANKQQVTYITERCVFLLKEDGLHLSEIAPGIDLQTQILDVMDFAPIIDRDANGQIKLMDAALFAEGLMGLKEMKS
Consider B7, for which the transferase activity result in data set [1] was “only partially abolished”.

B8: Bdigene 271: Acetate CoA-transferase YdiF from Salmonella enterica subsp. houtenaeserovar, Uniprot V1HBS2, SEQ ID NO: 9 (protein, listed as Salmonella enterica)
chain: MLSTKQFTAQQAVELIQDGDKVILGGFIGAVVPEAIEKAIEDKFLAEGHPCNLGLIFAAGQGDAKEKAINRLAHEGLVSSAIGGHWGLIPGLQRLASEGKITGYNLPQGVICHLLRDSAAGKAGTLTHVGLGTFVDPRIEGGKINAKTTEDIVTYININDVENLLYKKLDANIAILRGTTADTHGNITMEDECLILENLAAAQLVHNQGGKVIVQVKRIVPKGSLDPLQVKIPGIFVDALVVADGEAHMQTFAEAMNENYVGRGEKGIRERKIRPLDVKKVIARRAAMELKKNAIVNYGIGIPEIIAQVADEENVTQELIATVEPGAIGGSPAGGLSFGASAFPEAIITQDQMFDFYDGGGLDQAFLGLAETDAKGDLNVSKFGVKIAGCGGFINITQNAKHVFFCGSFTAGDSDIIVEEGKLIIRRDGQIKKFIKHVQQITFSSDTARKNHKPVLYITERAVFRLAAETIELIEIAPGIDLQHDILDKMEFRPTISPALKEMDKRIFSEALMSLSLK
For B8, in data set [3], the ketothiol-product entry is “✓” and the thiol-product entry is listed as “✓”.
